Columns and labels:
PARP1-ΔZn3 [1] = target: T1, PARP1-ΔZn3 (human, UniProt P09874 1-1014, del232-374); assay: EMSA; monomer-equivalent K, n=2.17±0.12; 25 mM Tris pH 7.5, 75 mM NaCl, 50 mM arginine, 0.1 mM TCEP, 0.1 ug/ul BSA, room temperature 30 min; 0.05 uM probe, 0-2.5 uM protein; native 10% PAGE in TBE; details: protein: recombinant; tags: His; chain copies: 2; label: 32P; single strand
PARP1-ΔBRCT [2] = target: T2, PARP1-ΔBRCT (human, UniProt P09874 1-1014, del367-494); assay: EMSA; monomer-equivalent K, n=1.94±0.11; 25 mM Tris pH 7.5, 75 mM NaCl, 50 mM arginine, 0.1 mM TCEP, 0.1 ug/ul BSA, room temperature 30 min; 0.05 uM probe, 0-2.5 uM protein; native 10% PAGE in TBE; details: protein: recombinant; tags: His; chain copies: 2; label: 32P; single strand
PARP1-ΔWGR [3] = target: T3, PARP1-ΔWGR (human, UniProt P09874 1-1014, del518-654); assay: EMSA; monomer-equivalent K, n=2.13±0.07; 25 mM Tris pH 7.5, 75 mM NaCl, 50 mM arginine, 0.1 mM TCEP, 0.1 ug/ul BSA, room temperature 30 min; 0.05 uM probe, 0-2.5 uM protein; native 10% PAGE in TBE; details: protein: recombinant; tags: His; chain copies: 2; label: 32P; single strand
PARP1-ΔZn3 [4] = target: T1, PARP1-ΔZn3; assay: EMSA; monomer-equivalent K, n=1.41±0.08; 25 mM Tris pH 7.5, 75 mM NaCl, 50 mM arginine, 0.1 mM TCEP, 0.1 ug/ul BSA, room temperature 30 min; 0.05 uM probe, 0-2.5 uM protein; native 10% PAGE in TBE; details: protein: recombinant; tags: His; chain copies: 2; label: 32P; single strand
PARP1-ΔWGR [5] = target: T3, PARP1-ΔWGR; assay: EMSA; monomer-equivalent K, n=1.04±0.11; 25 mM Tris pH 7.5, 75 mM NaCl, 50 mM arginine, 0.1 mM TCEP, 0.1 ug/ul BSA, room temperature 30 min; 0.05 uM probe, 0-2.5 uM protein; native 10% PAGE in TBE; details: protein: recombinant; tags: His; chain copies: 2; label: 32P; single strand
PARP1-ΔBRCT [6] = target: T2, PARP1-ΔBRCT; assay: EMSA; monomer-equivalent K, n=2.23±0.10; 25 mM Tris pH 7.5, 75 mM NaCl, 50 mM arginine, 0.1 mM TCEP, 0.1 ug/ul BSA, room temperature 30 min; 0.05 uM probe, 0-2.5 uM protein; native 10% PAGE in TBE; details: protein: recombinant; tags: His; chain copies: 2; label: 32P; single strand
PARP1-ΔBRCT [7] = target: T2, PARP1-ΔBRCT; assay: competition EMSA; vs N1 in same reaction; 25 mM Tris pH 7.5, 75 mM NaCl, 50 mM arginine, 0.1 mM TCEP, 0.1 ug/ul BSA, room temperature 30 min; 0.05 uM probe, 0-2.5 uM protein; native 10% PAGE in TBE; details: protein: recombinant; tags: His; label: 32P; single strand
PARP1-ΔWGR [8] = target: T3, PARP1-ΔWGR; assay: as above; details: protein: recombinant; tags: His; label: 32P; single strand
PARP1-ΔZn3 [9] = target: T1, PARP1-ΔZn3; assay: as above; details: protein: recombinant; tags: His; label: 32P; single strand
PARP1-ΔWGR [10] = target: T3, PARP1-ΔWGR; assay: EMSA; affinity not significantly changed from FL; Table 2 value not in material; 25 mM Tris pH 7.5, 75 mM NaCl, 50 mM arginine, 0.1 mM TCEP, 0.1 ug/ul BSA, room temperature 30 min; 0.05 uM probe, 0-2.5 uM protein; native 10% PAGE in TBE; details: protein: recombinant; tags: His; chain copies: 2; label: 5'-32P; single strand
PARP1-ΔZn3 [11] = target: T1, PARP1-ΔZn3; assay: EMSA; lowest affinity, within 2-3 fold of FL; Table 2 value not in material; 25 mM Tris pH 7.5, 75 mM NaCl, 50 mM arginine, 0.1 mM TCEP, 0.1 ug/ul BSA, room temperature 30 min; 0.05 uM probe, 0-2.5 uM protein; native 10% PAGE in TBE; details: protein: recombinant; tags: His; chain copies: 2; label: 5'-32P; single strand
PARP1-ΔBRCT [12] = target: T2, PARP1-ΔBRCT; assay: EMSA; Table 2 value not in material; 25 mM Tris pH 7.5, 75 mM NaCl, 50 mM arginine, 0.1 mM TCEP, 0.1 ug/ul BSA, room temperature 30 min; 0.05 uM probe, 0-2.5 uM protein; native 10% PAGE in TBE; details: protein: recombinant; tags: His; chain copies: 2; label: 5'-32P; single strand

T2 sequence (P09874 other isoform, or with tags, fused parts or gaps del367-494 | mutant): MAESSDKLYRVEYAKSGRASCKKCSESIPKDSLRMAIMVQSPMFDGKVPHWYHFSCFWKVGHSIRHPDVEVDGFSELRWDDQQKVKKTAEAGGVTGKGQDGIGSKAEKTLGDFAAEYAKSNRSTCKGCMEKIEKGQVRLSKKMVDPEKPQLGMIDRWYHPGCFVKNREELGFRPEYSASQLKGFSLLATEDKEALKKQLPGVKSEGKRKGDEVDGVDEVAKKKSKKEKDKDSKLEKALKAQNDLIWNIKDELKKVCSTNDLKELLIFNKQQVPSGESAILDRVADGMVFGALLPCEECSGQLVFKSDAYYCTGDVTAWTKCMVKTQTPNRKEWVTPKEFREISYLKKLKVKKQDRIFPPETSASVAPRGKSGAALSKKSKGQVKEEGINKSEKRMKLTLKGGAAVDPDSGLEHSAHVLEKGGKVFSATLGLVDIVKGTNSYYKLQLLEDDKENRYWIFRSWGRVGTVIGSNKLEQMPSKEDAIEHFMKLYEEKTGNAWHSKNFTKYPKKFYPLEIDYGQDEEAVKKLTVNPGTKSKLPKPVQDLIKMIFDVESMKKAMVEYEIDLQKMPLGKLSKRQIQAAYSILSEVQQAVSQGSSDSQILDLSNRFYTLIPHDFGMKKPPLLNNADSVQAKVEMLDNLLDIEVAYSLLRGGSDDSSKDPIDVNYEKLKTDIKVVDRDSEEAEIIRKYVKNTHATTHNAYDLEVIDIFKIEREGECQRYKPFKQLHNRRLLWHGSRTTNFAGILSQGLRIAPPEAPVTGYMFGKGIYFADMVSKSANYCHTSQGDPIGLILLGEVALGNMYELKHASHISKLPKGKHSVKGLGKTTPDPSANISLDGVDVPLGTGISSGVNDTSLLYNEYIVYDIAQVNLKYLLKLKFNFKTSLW
T1 sequence (P09874 other isoform, or with tags, fused parts or gaps del232-374 | mutant): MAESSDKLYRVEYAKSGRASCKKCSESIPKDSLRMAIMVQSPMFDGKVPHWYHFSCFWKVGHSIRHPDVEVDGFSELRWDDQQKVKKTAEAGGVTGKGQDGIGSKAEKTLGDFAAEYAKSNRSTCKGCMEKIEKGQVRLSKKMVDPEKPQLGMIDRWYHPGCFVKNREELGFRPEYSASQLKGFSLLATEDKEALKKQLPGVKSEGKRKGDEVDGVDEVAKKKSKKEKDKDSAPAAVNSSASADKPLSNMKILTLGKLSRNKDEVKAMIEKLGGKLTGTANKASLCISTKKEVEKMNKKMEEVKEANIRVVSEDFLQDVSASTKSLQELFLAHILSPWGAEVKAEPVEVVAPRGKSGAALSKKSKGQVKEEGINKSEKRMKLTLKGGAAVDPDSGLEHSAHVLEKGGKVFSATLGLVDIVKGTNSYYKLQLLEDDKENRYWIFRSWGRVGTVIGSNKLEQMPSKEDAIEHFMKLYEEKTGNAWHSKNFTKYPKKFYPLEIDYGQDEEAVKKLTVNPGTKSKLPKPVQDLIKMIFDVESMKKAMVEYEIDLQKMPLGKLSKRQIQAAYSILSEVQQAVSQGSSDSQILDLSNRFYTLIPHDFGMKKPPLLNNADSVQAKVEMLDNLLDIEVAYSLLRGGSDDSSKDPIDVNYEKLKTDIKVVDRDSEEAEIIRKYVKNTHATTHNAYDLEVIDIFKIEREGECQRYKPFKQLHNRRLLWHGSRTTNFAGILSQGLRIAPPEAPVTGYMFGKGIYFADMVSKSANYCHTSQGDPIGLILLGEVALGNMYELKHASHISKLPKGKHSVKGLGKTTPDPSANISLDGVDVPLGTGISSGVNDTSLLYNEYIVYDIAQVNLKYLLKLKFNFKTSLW
T3 sequence (P09874 other isoform, or with tags, fused parts or gaps del518-654 | mutant): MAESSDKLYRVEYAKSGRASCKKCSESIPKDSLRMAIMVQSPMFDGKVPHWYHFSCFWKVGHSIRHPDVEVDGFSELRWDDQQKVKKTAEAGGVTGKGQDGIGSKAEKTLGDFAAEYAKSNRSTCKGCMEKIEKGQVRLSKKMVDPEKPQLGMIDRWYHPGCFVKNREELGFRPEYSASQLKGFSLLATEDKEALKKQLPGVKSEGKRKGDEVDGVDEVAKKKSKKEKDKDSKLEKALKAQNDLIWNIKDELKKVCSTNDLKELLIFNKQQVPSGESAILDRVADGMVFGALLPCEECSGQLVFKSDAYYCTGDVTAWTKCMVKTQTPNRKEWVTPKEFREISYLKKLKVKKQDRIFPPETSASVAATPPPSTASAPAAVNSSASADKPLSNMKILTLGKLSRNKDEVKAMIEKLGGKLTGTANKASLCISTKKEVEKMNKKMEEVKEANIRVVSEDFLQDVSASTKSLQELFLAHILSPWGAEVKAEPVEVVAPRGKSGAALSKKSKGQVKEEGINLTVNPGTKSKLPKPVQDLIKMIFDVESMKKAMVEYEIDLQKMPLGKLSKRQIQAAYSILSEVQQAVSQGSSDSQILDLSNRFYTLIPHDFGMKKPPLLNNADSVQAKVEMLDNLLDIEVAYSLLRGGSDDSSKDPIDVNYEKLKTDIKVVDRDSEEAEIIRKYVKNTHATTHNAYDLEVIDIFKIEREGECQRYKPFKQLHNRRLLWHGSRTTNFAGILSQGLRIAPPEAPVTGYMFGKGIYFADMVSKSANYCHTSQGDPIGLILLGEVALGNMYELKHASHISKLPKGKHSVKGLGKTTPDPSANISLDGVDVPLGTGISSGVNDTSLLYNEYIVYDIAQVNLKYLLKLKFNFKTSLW

Q: How did the Ka (PARP1-ΔZn3 [1]) turn out when CCGUACGCGGGUUUAAACGA (ssRNA) [20-mer ssRNA] was run?
A: Its Ka is 1.3e+06 M⁻¹.

Q: And the Ka (PARP1-ΔBRCT [2])?
A: Its Ka is 1.19e+06 M⁻¹.

Q: And the Ka (PARP1-ΔWGR [3])?
A: The Ka was 1.46e+06 M⁻¹.

Q: For CGUACGCGGAAUAGUUUAAACUGU (ssRNA) [24-mer ssRNA], which Ka (PARP1-ΔZn3 [4]) is on record?
A: The Ka was 1.86e+06 M⁻¹.

Q: What about the Ka (PARP1-ΔWGR [5]) of the same binder?
A: The Ka was 3.4e+06 M⁻¹.

Q: And the Ka (PARP1-ΔBRCT [6])?
A: Its Ka is 2.38e+06 M⁻¹.

Q: TAGGCACCGGCATCTTGAC (ssDNA) [19-mer ssDNA] was tested. Which binding signal (PARP1-ΔBRCT [7]) did it give?
A: The binding signal was 42.3 ± 1.2 KDNA/KRNA.

Q: And the binding signal (PARP1-ΔWGR [8])?
A: Its binding signal is 26.5 ± 2.4 KDNA/KRNA.

Q: And the binding signal (PARP1-ΔZn3 [9])?
A: The binding signal was 23.1 ± 5.2 KDNA/KRNA.

Q: What does the source list for UAGGCACCGGCAUCUUGAC (ssRNA) [19-mer ssRNA]?
A: binding result (PARP1-ΔWGR [10]): binds; binding result (PARP1-ΔZn3 [11]): binds; binding result (PARP1-ΔBRCT [12]): binds
